Legend:
[1] = target: GluCl-EGFP (Caenorhabditis elegans glutamate-gated chloride channel, EGFP gene fusion) (Caenorhabditis elegans) (UniProt G5EBR3); experiment: SEC
SEC = target: the molecule itself; experiment: SEC

In the case of “GluCl-EGFP (Caenorhabditis elegans glutamate-gated chloride channel, EGFP gene fusion) (from UniProt G5EBR3 21-461) (natural protein)”, the stoichiometry N [1] is reported as 5.

B1: cASIC463 (chicken acid-sensing ion channel 1a truncated 64 residues from the carboxy terminus), N-terminal eGFP tagged (domain or fragment, Gallus gallus, UniProt Q1XA76 1-463, looked up)
chain: MMDLKVDEEEVDSGQPVSIQAFASSSTLHGISHIFSYERLSLKRVVWALCFMGSLALLALVCTNRIQYYFLYPHVTKLDEVAATRLTFPAVTFCNLNEFRFSRVTKNDLYHAGELLALLNNRYEIPDTQTADEKQLEILQDKANFRNFKPKPFNMLEFYDRAGHDIREMLLSCFFRGEQCSPEDFKVVFTRYGKCYTFNAGQDGKPRLITMKGGTGNGLEIMLDIQQDEYLPVWGETDETSFEAGIKVQIHSQDEPPLIDQLGFGVAPGFQTFVSCQEQRLIYLPPPWGDCKATTGDSEFYDTYSITACRIDCETRYLVENCNCRMVHMPGDAPYCTPEQYKECADPALDFLVEKDNEYCVCEMPCNVTRYGKELSMVKIPSKASAKYLAKKYNKSEQYIGENILVLDIFFEALNYETIEQKKAYEVAGLLGDIGGQMGLFIGASILTVLELFDYAYEVIKHR
In the case of B1, the “stoichiometry N” value (SEC) is reported as 3.
